Data: US20240010721A1 (HARBOUR BIOMED SHANGHAI, published 2024)
Numbering of substitutions follows the chain as printed. Names and notes keep the numbering of the source.

B1: PR001360 (antibody, human IgG1, kappa, V domains shown)
VH: QVQLVESGGGVVQPGRSLRLSCAASGFTFSSYGMHWVRQAPGKGLEWVAVIWYDGSDKDSVDSVKGRFTISRDDSKNTLYLQMNSLRAEDTAVYYCAREQARSFDLWGRGTLVTVSS
VL: DIQMTQSPSTLSASVGDRVTITCRASQTINNWLAWYQQKPGKAPKLLIYKASSLESGVPSRFSGSGSGTEFTLTISSLQPDDFATYYCQQYNIYSPMYTFGQGTKVEIKR
notes: fully human IgG1, kappa
B2: PR002581 (antibody, human IgG1, kappa, V domains shown)
VH: B1 VH with S31N, M34I, V50I, I51M, D57N, K58T, S60Y, V61A, D74T, Y80F
VL: B1 VL with Q3V, I93A
notes: PR001369 variant: VL S93A; hIgG1; also called anti-ROR1 1015M3-H10(L: S93A) hIgG1
B3: PR002574 (antibody, human IgG1, kappa, V domains shown)
VH: B1 VH with Q1E, V5L, Y32F, D54E, S60Y, V61A, D74T
VL: B1 VL with Q3V, I93S
notes: PR001364 variant: VH D54E; hIgG1; also called anti-ROR1 1015M3-D8(H: D54E) hIgG1
B4: PR002579 (antibody, human IgG1, kappa, V domains shown)
VH: B1 VH with Q1E, V5L, Y32F, G55A, S60Y, V61A, D74T
VL: B1 VL with Q3V, I93A
notes: PR001364 variant: VH G55A, VL S93A; hIgG1; also called anti-ROR1 1015M3-D8(H: G55A; L: S93A) hIgG1
B5: PR002572 (antibody, human IgG1, kappa, V domains shown)
VH: B1 VH with Q1E, V5L, Y32F, S60Y, V61A, D74T
VL: B1 VL with Q3V, N92Q, I93S
notes: PR001364 variant: VL N92Q; hIgG1; also called anti-ROR1 1015M3-D8(L: N92Q) hIgG1
B6: PR002586 (antibody, human IgG1, kappa, V domains shown)
VH: QVQLVESGGGVVQPGRSLRLSCAASGFTFSNYGIHWVRQAPGKGLEWVAIMWYDASNTDYADSVKGRFTISRDTSKNTLFLQMNSLRAEDTAVYYCAREQARSFDLWGRGTLVTVSS
VL: B1 VL with Q3V, N92Q, I93S
notes: PR001369 variant: VH G55A, VL N92Q; hIgG1; also called anti-ROR1 1015M3-H10(H: G55A; L: N92Q) hIgG1
B7: PR002576 (antibody, human IgG1, kappa, V domains shown)
VH: B1 VH with Q1E, V5L, Y32F, D54E, S60Y, V61A, D74T
VL: B1 VL with Q3V, I93A
notes: PR001364 variant: VH D54E, VL S93A; hIgG1; also called anti-ROR1 1015M3-D8(H: D54E; L: S93A) hIgG1
B8: PR002584 (antibody, human IgG1, kappa, V domains shown)
VH: B6 VH with D54E, A55G
VL: B1 VL with Q3V, I93A
notes: PR001369 variant: VH D54E, VL S93A; hIgG1; also called anti-ROR1 1015M3-H10(H: D54E; L: S93A) hIgG1
B9: PR002583 (antibody, human IgG1, kappa, V domains shown)
VH: B6 VH with D54E, A55G
VL: B1 VL with Q3V, N92Q, I93S
notes: PR001369 variant: VH D54E, VL N92Q; hIgG1; also called anti-ROR1 1015M3-H10(H: D54E; L: N92Q) hIgG1
B10: PR002569 (antibody, human IgG1, kappa, V domains shown)
VH: B6 VH with E6Q, N31S, I34M, N57D, T58K, F80Y
VL: B1 VL with Q3V, T10S, I93A
notes: PR001354 variant: VH G55A, VL S93A; hIgG1; also called anti-ROR1 1015M2-C9(H: G55A; L: S93A) hIgG1
B11: PR002580 (antibody, human IgG1, kappa, V domains shown)
VH: B6 VH with A55G
VL: B1 VL with Q3V, N92Q, I93S
notes: PR001369 variant: VL N92Q; hIgG1; also called anti-ROR1 1015M3-H10(L: N92Q) hIgG1
B12: PR002573 (antibody, human IgG1, kappa, V domains shown)
VH: B1 VH with Q1E, V5L, Y32F, S60Y, V61A, D74T
VL: B1 VL with Q3V, I93A
notes: PR001364 variant: VL S93A; hIgG1; also called anti-ROR1 1015M3-D8(L: S93A) hIgG1
B13: PR002587 (antibody, human IgG1, kappa, V domains shown)
VH: B6 VH
VL: B1 VL with Q3V, I93A
notes: PR001369 variant: VH G55A, VL S93A; hIgG1; also called anti-ROR1 1015M3-H10(H: G55A; L: S93A) hIgG1
B14: PR002571 (antibody, human IgG1, kappa, V domains shown)
VH: B1 VH with I51A, G55A, S56V, D57S, K58E, S60Y, V61A, D74N, S75A
VL: B1 VL with Q3V, T28S, N92K, I93S
notes: PR001356 variant: VH G55A; hIgG1; also called anti-ROR1 1015M2-E6(H: G55A) hIgG1
B15: PR002575 (antibody, human IgG1, kappa, V domains shown)
VH: B1 VH with Q1E, V5L, Y32F, D54E, S60Y, V61A, D74T
VL: B1 VL with Q3V, N92Q, I93S
notes: PR001364 variant: VH D54E, VL N92Q; hIgG1; also called anti-ROR1 1015M3-D8(H: D54E; L: N92Q) hIgG1
B16: PR002585 (antibody, human IgG1, kappa, V domains shown)
VH: B6 VH
VL: B1 VL with Q3V, I93S
notes: PR001369 variant: VH G55A; hIgG1; also called anti-ROR1 1015M3-H10(H: G55A) hIgG1
B17: PR002577 (antibody, human IgG1, kappa, V domains shown)
VH: B1 VH with Q1E, V5L, Y32F, G55A, S60Y, V61A, D74T
VL: B1 VL with Q3V, I93S
notes: PR001364 variant: VH G55A; hIgG1; also called anti-ROR1 1015M3-D8(H: G55A) hIgG1
B18: PR002578 (antibody, human IgG1, kappa, V domains shown)
VH: B1 VH with Q1E, V5L, Y32F, G55A, S60Y, V61A, D74T
VL: B1 VL with Q3V, N92Q, I93S
notes: PR001364 variant: VH G55A, VL N92Q; hIgG1; also called anti-ROR1 1015M3-D8(H: G55A; L: N92Q) hIgG1
B19: PR002570 (antibody, human IgG1, kappa, V domains shown)
VH: B1 VH with I51A, D54E, S56V, D57S, K58E, S60Y, V61A, D74N, S75A
VL: B1 VL with Q3V, T28S, N92K, I93S
notes: PR001356 variant: VH D54E; hIgG1; also called anti-ROR1 1015M2-E6(H: D54E) hIgG1
B20: PR002582 (antibody, human IgG1, kappa, V domains shown)
VH: B6 VH with D54E, A55G
VL: B1 VL with Q3V, I93S
notes: PR001369 variant: VH D54E; hIgG1; also called anti-ROR1 1015M3-H10(H: D54E) hIgG1

What follows are binders tested against T1, ROR1 (antigen of the KD determination and of the Octet dissociation measurement) (UniProt Q01973 30-403, limits assumed) (assay: method not stated (conventional procedures)).
T1 sequence (Q01973 30-403 limits assumed): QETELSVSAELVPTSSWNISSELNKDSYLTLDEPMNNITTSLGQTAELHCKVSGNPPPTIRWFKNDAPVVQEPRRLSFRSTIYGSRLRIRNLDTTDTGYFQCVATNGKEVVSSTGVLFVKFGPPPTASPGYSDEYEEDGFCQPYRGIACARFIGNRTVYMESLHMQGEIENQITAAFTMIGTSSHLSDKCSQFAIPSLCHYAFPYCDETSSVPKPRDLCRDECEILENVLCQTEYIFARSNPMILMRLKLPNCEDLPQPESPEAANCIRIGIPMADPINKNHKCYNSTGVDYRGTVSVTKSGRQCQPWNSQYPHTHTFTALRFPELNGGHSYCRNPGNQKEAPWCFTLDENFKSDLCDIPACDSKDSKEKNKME

Row | Binder | Kd | koff | kon
1 | B1 | 0.804 nM | 0.000248 s⁻¹ | 309000 M⁻¹ s⁻¹

These binders were tested against T2, human ROR1 (hROR1) on cells (human, UniProt Q01973 30-937) (assay: FACS, HEK293T-hROR1 cells).
T2 construct: whole, on cells; the cell line is named under assay; also called HEK293T-hROR1; 293T-hROR1
Protocol: (§1) The binding properties were characterized by FACS. The recombinant antibodies obtained above were serially diluted to 9 different concentrations and incubated for 1 h, and then determined for the binding ability with HEK293T-hROR1, CHO-K1-cynoROR1 and A549 cell lines (endogenously expressing ROR1), respectively. The secondary antibody was then incubated for 1 h. The results are shown in FIG. 4-6 and Table 7-2 below.

T2 sequence (Q01973 30-937): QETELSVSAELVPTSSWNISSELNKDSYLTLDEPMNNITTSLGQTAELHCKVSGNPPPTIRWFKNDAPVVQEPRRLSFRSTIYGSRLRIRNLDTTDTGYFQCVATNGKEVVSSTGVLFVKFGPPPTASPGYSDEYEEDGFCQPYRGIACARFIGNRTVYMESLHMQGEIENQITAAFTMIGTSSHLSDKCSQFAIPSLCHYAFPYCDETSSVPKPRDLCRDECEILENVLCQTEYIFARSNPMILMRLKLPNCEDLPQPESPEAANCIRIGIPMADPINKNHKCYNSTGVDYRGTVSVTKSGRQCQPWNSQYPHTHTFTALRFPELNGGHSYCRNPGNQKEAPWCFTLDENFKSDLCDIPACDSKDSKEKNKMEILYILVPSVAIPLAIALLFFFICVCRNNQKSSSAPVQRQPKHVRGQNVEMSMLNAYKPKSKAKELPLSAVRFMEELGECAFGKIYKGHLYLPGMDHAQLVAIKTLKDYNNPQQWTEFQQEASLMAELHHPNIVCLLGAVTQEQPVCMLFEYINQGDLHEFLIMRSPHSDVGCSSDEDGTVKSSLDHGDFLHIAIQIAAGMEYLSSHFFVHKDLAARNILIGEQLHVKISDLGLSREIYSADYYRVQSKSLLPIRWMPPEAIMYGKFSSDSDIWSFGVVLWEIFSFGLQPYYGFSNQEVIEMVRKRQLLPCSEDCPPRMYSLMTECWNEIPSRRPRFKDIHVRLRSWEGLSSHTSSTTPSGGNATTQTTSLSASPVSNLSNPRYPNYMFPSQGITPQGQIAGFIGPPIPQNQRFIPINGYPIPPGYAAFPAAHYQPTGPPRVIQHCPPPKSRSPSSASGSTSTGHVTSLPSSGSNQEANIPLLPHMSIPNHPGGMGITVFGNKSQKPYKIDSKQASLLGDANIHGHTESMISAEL

Row | Binder | fold lower EC50 than reference PR000374
2 | B1 | 10 fold

Molecular target: T2, human ROR1 (hROR1) on cells
Assay: FACS, HEK293T-hROR1 cells
Remark: another data set of the same source

Row | Binder | MFI
3 | B2 | 42300 MFI
4 | B3 | 45300 MFI
5 | B4 | 43100 MFI
6 | B5 | 43000 MFI
7 | B6 | 41900 MFI
8 | B7 | 40200 MFI
9 | B8 | 36600 MFI
10 | B9 | 25300 MFI
11 | B10 | 34500 MFI
12 | B11 | 42500 MFI
13 | B12 | 37200 MFI
14 | B13 | 41500 MFI
15 | B14 | 49600 MFI
16 | B15 | 33800 MFI
17 | B16 | 32700 MFI
18 | B17 | 44200 MFI
19 | B18 | 45100 MFI
20 | B19 | 43100 MFI
21 | B20 | 32300 MFI

What follows are binders tested against T2, human ROR1 (hROR1) on cells (assay: FACS, A549 cells).
Protocol: as §1

Row | Binder | MAX(MFI)
22 | B1 | 4050 MFI

What follows are binders tested against T2, human ROR1 (hROR1) on cells (assay: FACS, HEK293T-hROR1 cells; cytometer saturated).
Protocol: as §1

Row | Binder | MAX(MFI)
23 | B1 | 262000 MFI

These binders were tested against T3, hROR2ECD-his (human, UniProt Q01974 34-403) (assay: ELISA, plate coated with hROR2 ECD-his).
T3 construct: extracellular domain; bought, Acrobiosystems R02-H52E5; also called huROR2-his
Protocol: (§2) Screening by ELISA assay: 96-well plates (Corning 9018) were coated with 1 μg/mL hROR1 ECD-his/hROR2 ECD-his/mROR1 ECD-his proteins prepared with PBS in Example 1a above and incubated at 4° C. overnight. The liquid was then discarded, and the plates were washed 3 times with PBST, blocked with 5% milk for 2 h at room temperature, and washed 3 times with PBST. The taken supernatant was added at 100 μL/well, and the plates were incubated at room temperature for 1 h, followed by washing 3 times with PBST. 100 μL/well of secondary antibody (Sigma, Cat#: A8592) was added, the plates were incubated at room temperature for 1 h, and then washed. TMB was then added to the plates at 100 μL/well and incubated for 15 min at room temperature. Thereafter, the reaction was terminated and data were read.
(§3) a. Results of ELISA assay (the ELISA assay was performed according to the same procedures as in Example 2c, except that the added samples were recombinant antibodies and the secondary antibody was a-Fc (Genscript, Cat#: A01854))

T3 sequence (Q01974 34-403): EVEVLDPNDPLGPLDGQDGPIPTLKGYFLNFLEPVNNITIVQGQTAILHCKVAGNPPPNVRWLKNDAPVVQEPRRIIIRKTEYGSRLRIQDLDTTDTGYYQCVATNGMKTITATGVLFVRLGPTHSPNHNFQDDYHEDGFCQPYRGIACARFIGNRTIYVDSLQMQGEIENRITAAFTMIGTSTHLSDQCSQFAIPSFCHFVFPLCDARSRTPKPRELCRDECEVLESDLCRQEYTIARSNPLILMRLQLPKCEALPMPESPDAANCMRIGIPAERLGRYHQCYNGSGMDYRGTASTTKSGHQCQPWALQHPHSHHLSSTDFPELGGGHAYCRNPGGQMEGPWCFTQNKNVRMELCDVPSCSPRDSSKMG

Row | Binder | ELISA signal (called MFI)
24 | B1 | 0.0315

Each binder was assayed against T1, ROR1 (antigen of the KD determination …) (assay: Octet, antigen form not stated).

Row | Binder | Response | koff
25 | B2 | 0.974 | 6.73e-05 s⁻¹
26 | B3 | 0.485 | 0.000172 s⁻¹
27 | B4 | 0.783 | 0.000199 s⁻¹
28 | B5 | 0.606 | 0.000104 s⁻¹
29 | B6 | 0.754 | 0.000266 s⁻¹
30 | B7 | 0.866 | 9.83e-05 s⁻¹
31 | B8 | 0.69 | 0.000301 s⁻¹
32 | B9 | 0.672 | 0.000223 s⁻¹
33 | B10 | 0.614 | 0.000207 s⁻¹
34 | B11 | 0.985 | 4.75e-05 s⁻¹
35 | B12 | 0.723 | 8.84e-05 s⁻¹
36 | B13 | 0.756 | 0.000394 s⁻¹
37 | B14 | 0.638 | 0.000113 s⁻¹
38 | B15 | 0.828 | 0.000112 s⁻¹
39 | B16 | 0.771 | 0.000389 s⁻¹
40 | B17 | 0.244 | 0.000601 s⁻¹
41 | B18 | 0.414 | 0.000322 s⁻¹
42 | B19 | 0.472 | 0.00108 s⁻¹
43 | B20 | 0.798 | 0.000193 s⁻¹

Molecular target: T3, hROR2ECD-his
Assay: ELISA, plate coated with hROR2 ECD-his
Remark: another data set of the same source
Protocol: as §2, §3
The corresponding values in the table are the measured median fluorescence intensity (MFI).

Row | Binder | binding result
44 | B1 | no binding

Each binder was assayed against T4, Human ROR1-ECD-his (human, UniProt Q01973 30-406) (assay: ELISA, plate coated with hROR1 ECD-his).
T4 construct: extracellular domain; bought, Acrobiosystems RO1-H522y; also called hROR1-ECD-his; hROR1 ECD-his
Protocol: as §2, §3

T4 sequence (Q01973 30-406): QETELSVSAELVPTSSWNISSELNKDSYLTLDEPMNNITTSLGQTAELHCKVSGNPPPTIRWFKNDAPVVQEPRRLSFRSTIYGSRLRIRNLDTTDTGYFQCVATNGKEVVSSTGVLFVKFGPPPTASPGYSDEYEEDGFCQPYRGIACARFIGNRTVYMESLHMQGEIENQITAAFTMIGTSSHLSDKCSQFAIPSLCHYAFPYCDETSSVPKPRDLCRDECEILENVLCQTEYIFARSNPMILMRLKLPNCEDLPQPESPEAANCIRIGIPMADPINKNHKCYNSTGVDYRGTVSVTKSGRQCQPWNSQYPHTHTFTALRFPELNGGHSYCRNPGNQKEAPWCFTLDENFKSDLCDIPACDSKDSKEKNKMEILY

Row | Binder | ELISA signal (called MFI)
45 | B1 | 2.44

The binders below were run against T2, human ROR1 (hROR1) on cells (assay: FACS, Panc-1 cells).

Row | Binder | MFI
46 | B2 | 3180 MFI
47 | B3 | 5870 MFI
48 | B4 | 7050 MFI
49 | B5 | 3930 MFI
50 | B6 | 5490 MFI
51 | B7 | 2470 MFI
52 | B8 | 3180 MFI
53 | B9 | 3950 MFI
54 | B10 | 3760 MFI
55 | B11 | 3720 MFI
56 | B12 | 3710 MFI
57 | B13 | 2950 MFI
58 | B14 | 4560 MFI
59 | B15 | 3250 MFI
60 | B16 | 2610 MFI
61 | B17 | 6490 MFI
62 | B18 | 6700 MFI
63 | B19 | 3660 MFI
64 | B20 | 1990 MFI

What follows are binders tested against T5, cynomolgus ROR1 (cynoROR1) on CHO-K1 cells (cynomolgus, UniProt A0A2K5WTX7 30-937) (assay: FACS, CHO-K1-cynoROR1 cells).
T5 construct: whole, on cells; also called CHO-K1-cynoROR1; CHO-K1-cyROR1
Protocol: as §1

Row | Binder | MAX(MFI)
65 | B1 | 25000 MFI
